In paper PMC9082959, “Mechanism of Assembly of the Non-Covalent Spectrin Tetramerization Domain from Intrinsically Disordered Partners” (Journal of molecular biology, 2013):
Substitutions are numbered along the chain they refer to. In names and notes the source's numbering stands.

B1: α0α1 F97A (domain or fragment, human, UniProt P02549 2-163, looked up)
chain: EQFPKETVVESSGPKVLETAEEIQERRQEVLTRYQSAKERVAERGQKLEDSYHLQVFKRDADDLGKWIMEKVNILTDKSYEDPTNIQGKYQKHQSLEAEVQTKSRLMSELEKTREERFTMGHSAHEETKAHIEELRHLWDLLLELTLEKGDQLLRALKFQQY
notes: mutant of m1; also called F38A; source: E. coli C41(DE3), purified (Ni2+ agarose, thrombin cleavage, gel filtration)
B2: α0α1 L91A (domain or fragment, human, UniProt P02549 2-163, looked up)
chain: B1 chain with L31A, A37F
notes: mutant of m1; also called L32A; source: E. coli C41(DE3), purified (Ni2+ agarose, thrombin cleavage, gel filtration)
B3: α0α1 Q88A (domain or fragment, human, UniProt P02549 2-163, looked up)
chain: B1 chain with Q28A, A37F
notes: mutant of m1; also called Q29A; source: E. coli C41(DE3), purified (Ni2+ agarose, thrombin cleavage, gel filtration)
B4: α0α1 R104A (domain or fragment, human, UniProt P02549 2-163, looked up)
chain: B1 chain with A37F, R44A
notes: mutant of m1; also called R45A; source: E. coli C41(DE3), purified (Ni2+ agarose, thrombin cleavage, gel filtration)
B5: α0α1 V101A (domain or fragment, human, UniProt P02549 2-163, looked up)
chain: B1 chain with A37F, V41A
notes: mutant of m1; also called V42A; source: E. coli C41(DE3), purified (Ni2+ agarose, thrombin cleavage, gel filtration)
B6: α0α1 Y94A (domain or fragment, human, UniProt P02549 2-163, looked up)
chain: B1 chain with Y34A, A37F
notes: mutant of m1; also called Y35A; source: E. coli C41(DE3), purified (Ni2+ agarose, thrombin cleavage, gel filtration)
B7: α0α1 Y94L (domain or fragment, human, UniProt P02549 2-163, looked up)
chain: B1 chain with Y34L, A37F
notes: mutant of m1; also called Y35L; source: E. coli C41(DE3), purified (Ni2+ agarose, thrombin cleavage, gel filtration)
B8: α0α1 E85A (domain or fragment, human, UniProt P02549 2-163, looked up)
chain: B1 chain with E25A, A37F
notes: mutant of m1; also called E26A; source: E. coli C41(DE3), purified (Ni2+ agarose, thrombin cleavage, gel filtration)
B9: α0α1 E85G (domain or fragment, human, UniProt P02549 2-163, looked up)
chain: B1 chain with E25G, A37F
notes: mutant of m1; also called E26G; source: E. coli C41(DE3), purified (Ni2+ agarose, thrombin cleavage, gel filtration)
B10: α0α1 E99A (domain or fragment, human, UniProt P02549 2-163, looked up)
chain: B1 chain with A37F, E39A
notes: mutant of m1; also called E40A; source: E. coli C41(DE3), purified (Ni2+ agarose, thrombin cleavage, gel filtration)
B11: α0α1 E99G (domain or fragment, human, UniProt P02549 2-163, looked up)
chain: B1 chain with A37F, E39G
notes: mutant of m1; also called E40G; source: E. coli C41(DE3), purified (Ni2+ agarose, thrombin cleavage, gel filtration)
B12: α0α1 E103A (domain or fragment, human, UniProt P02549 2-163, looked up)
chain: B1 chain with A37F, E43A
notes: mutant of m1; also called E44A; source: E. coli C41(DE3), purified (Ni2+ agarose, thrombin cleavage, gel filtration)
B13: α0α1 E103G (domain or fragment, human, UniProt P02549 2-163, looked up)
chain: B1 chain with A37F, E43G
notes: mutant of m1; also called E44G; source: E. coli C41(DE3), purified (Ni2+ agarose, thrombin cleavage, gel filtration)
B14: α0α1 Q95A (domain or fragment, human, UniProt P02549 2-163, looked up)
chain: B1 chain with Q35A, A37F
notes: mutant of m1; also called Q36A; source: E. coli C41(DE3), purified (Ni2+ agarose, thrombin cleavage, gel filtration)
B15: α0α1 Q95G (domain or fragment, human, UniProt P02549 2-163, looked up)
chain: B1 chain with Q35G, A37F
notes: mutant of m1; also called Q36G; source: E. coli C41(DE3), purified (Ni2+ agarose, thrombin cleavage, gel filtration)
B16: α0α1 Q106A (domain or fragment, human, UniProt P02549 2-163, looked up)
chain: B1 chain with A37F, Q46A
notes: mutant of m1; also called Q47A; source: E. coli C41(DE3), purified (Ni2+ agarose, thrombin cleavage, gel filtration)
B17: α0α1 Q106G (domain or fragment, human, UniProt P02549 2-163, looked up)
chain: B1 chain with A37F, Q46G
notes: mutant of m1; also called Q47G; source: E. coli C41(DE3), purified (Ni2+ agarose, thrombin cleavage, gel filtration)
B18: α0α1 R87G (domain or fragment, human, UniProt P02549 2-163, looked up)
chain: B1 chain with R27G, A37F
notes: mutant of m1; also called R28G; source: E. coli C41(DE3), purified (Ni2+ agarose, thrombin cleavage, gel filtration)
B19: α0α1 T92A (domain or fragment, human, UniProt P02549 2-163, looked up)
chain: B1 chain with T32A, A37F
notes: mutant of m1; also called T33A; source: E. coli C41(DE3), purified (Ni2+ agarose, thrombin cleavage, gel filtration)
B20: α0α1 T92G (domain or fragment, human, UniProt P02549 2-163, looked up)
chain: B1 chain with T32G, A37F
notes: mutant of m1; also called T33G; source: E. coli C41(DE3), purified (Ni2+ agarose, thrombin cleavage, gel filtration)

molecular target: T1, β16β17 (erythrocyte β-spectrin residues 1898–2083), wild type (human, UniProt P11277 1898-2083); assay: ITC; β16β17 at 25–50 μM in the cell titrated with 15–20 injections to 2–2.5 eq of α0α1; one-site binding model; PBS (50 mM sodium phosphate, 150 mM NaCl, pH 7.04), 25 °C; mutants only against the wild-type partner; details: both partners purified
T1 construct: erythrocyte β-spectrin, human, residues 1898-2083 (β16 plus the incomplete 17th domain); synthetic gene (GenScript) in a modified pRSETA plasmid; source: E. coli C41(DE3), purified (Ni2+ agarose, thrombin cleavage, gel filtration)
T1 sequence (looked up): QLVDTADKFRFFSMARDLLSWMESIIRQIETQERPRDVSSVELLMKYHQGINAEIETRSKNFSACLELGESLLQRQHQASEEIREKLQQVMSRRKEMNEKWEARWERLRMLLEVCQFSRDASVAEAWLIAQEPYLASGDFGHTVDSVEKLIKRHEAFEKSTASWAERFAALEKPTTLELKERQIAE

Binder	Ka [M⁻¹]
B1	58000
B2	1.3e+06
B3	1e+06
B4	6.7e+06
B5	100000
B6	670000
B7	4.4e+06

molecular target: T1, β16β17 (erythrocyte β-spectrin residues …); assay: as above; details: both partners purified; remark: another data set of the same source

Binder	Ka [M⁻¹]
B8	1.2e+06
B9	830000
B10	900000
B11	800000
B12	810000
B13	220000
B14	2.29e+06
B15	2e+06
B16	1.3e+06
B17	200000
B18	4e+06
B19	670000
B20	3.3e+06
